Laboratory results: article PMC9425029, “Secretagogin is a Ca^2+-dependent stress-responsive chaperone that may also play a role in aggregation-based proteinopathies” (The Journal of Biological Chemistry, 2022)

Biological target: the molecule itself
Assay: SAXS; oxidizing conditions (100 μM H2O2), SCGN about 5-15 mg/ml, without or with 8 mM Ca2+; 50 mM Tris pH 7.5, 100 mM KCl

B1: Secretagogin (mouse SCGN) (natural protein, UniProt Q91WD9 1-276, looked up)
chain: MDNARRKTPARLDAACFWQIWQRFDKEEKGYIRETELDAFFDHLLAKSGTEDTLMEENVQKVKEQLMTSHNVSKEGRILMKELASMFLSEDENFLLFFRLETPLDNSVEFMQIWRKYDADSSGFISAAELCNFLRDLFLHHKKNISEAELEEYTSTMMKIFDKNKDGRLDLNDLARILALQENFLLQFKMDASSTEERKRDFEKIFAHYDVSKTGALEGPEVDGFVKDMMELVQPSISGVDLDKFREILLRHCDVNKDGKIQKSELALCLGLKINP
notes: secretagogin, mouse, cloned in pET21b; Used Ca2+-free (apo) or with Ca2+ (holo); the assays tell them apart; also called apo-SCGN; holo-SCGN; source: E. coli BL21-DE3 (pET21b), purified (Ni-NTA-Sepharose, size-exclusion chromatography), decalcified with EDTA
Q: Does B1 bind?
A: Result: binds
